This note sets out measurements from US20130309246A1.

In the test the target is Notch (Notch pathway receptors) in MC3T3-E1 murine osteoblasts (mouse). Nature of the test: cell-based or functional assay.

With “human JAGGED1 overexpressed in SCP28 breast cancer cells (JAG1 OE tumor cells) (from UniProt P78504 34-1218) (ligand)”, the Notch activity (firefly luciferase Notch reporter in MC3T3-E1 osteoblasts cocultured with JAG1 OE tumor cells) was found to be 6 fold.
